Experiment: yeast display, Sf9 membrane polyspecificity reagent, FACS + sequencing; frameworks hold sequencing errors
Procedure, shortened: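 Genes from sorted yeast were amplified by colony PCR, read by MiSeq 2 × 250 sequencing and filtered on CDR length. These cells carried a synthetic nanobody library in Saccharomyces cerevisiae BJ5465 and were sorted by FACS into low and high (top ~1%) gates on anti-HA and streptavidin fluorescence. Polyreactivity is labelled according to the gate of origin.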

Row | Sequence | polyreactivity (PSR sort gate)
1 | QVQLVESGGGLVQAGGSLRLSCAASGLIIDGYAMGWSRQAPGKERELVATITVSGTSTYYADSVKGRFTISRDNAKNTVYLQMNSLKPEDTAVYYFATDRNYGYYFVEYDHDYWGQGTQVTVSS | low polyreactivity
2 | QVQLVESGGGLVQAAGSLRLSCAASGSTFTLNAMGWNRQAPGKERELVAAITSGGRTKYADSVKGRFTISRDNAKNTVYLQMNSLKPEDTAVYYCAATFAGGYGYWGQGTQVTVSS | high polyreactivity
3 | QVQLVESAGGLVQAGGSLRLSCAASGSTFIRYAMGWYRQAPGKERELVAAITRGGSTYYADSVKGRFTISRDNAKYTVYLQMNSLKPEDTAVYYCAAGYYGNGVFEYDYWGQGTQVTVSS | low polyreactivity
4 | QVQLIESGGGLVQAGGSLRLSCAASGIIFYDYAMGWYRQAPGKERELVATITSGGSTNYADSVKGRFTISRDNAKNTVYLQMNSLKPEDTAVYYCAAGRGLILGGVYGYDYWGQGTQVTVSS | low polyreactivity
5 | QVQLVESGGGLVQAGGSLRLSCAASGSTFFPNAMGWYRQAPGKERELIADISISGGSTRYADSVKGRFTISRDNEKNTVYLQMNSLKPEDTAVYYCAVRRSAFYARFGRNYWGQGTQVTVSS | low polyreactivity
6 | QVQLVESGGGLVQAGGSLRLSCAASGSTFSVYAMGWYRQAPGKERELVAAITSGGSTNYADSVKGRFTISRDNAKNTVYLQMNSLKPEDTAVYYCAAYLYDTIYTSYREYDYWGQGTQVTVSS | low polyreactivity
7 | QVQLVESGGGLVQAGGSLRLSCAASGRTFSQYDMGWYRQAPGKERELVAAISWSGGRTYYADSVKGRFTISRDNAKNTVYLQMNSLKPEDTAVYYCAAAYSWIRSPYNDPNRGYDYWGQGTQVTVSS | low polyreactivity
8 | QVQLVESGGGLVQAGGSLRLSCAASGSTFSRYAMGWYRPAPGKERELVAAISGTDDSTYYADSVKGRFTISRDNAKNTVYLQMNSLKPEDTAVYYCAARLVESRYGFGYEYYYWGQGTQVTVSS | low polyreactivity
9 | QVQLVESGGGLVQAGGSLRLSCAASGITFAYYVMGWYRQAPGKERELVAAINWSGGSTYYADSVKGRFTISRDNAKNTVYLQMNSLKPEDTAVYYCAADWSTWYGEKFYWGHGTQVTVSS | high polyreactivity
10 | QVQLVESGGGLVQAGGSLRLSCAASGRIFSGYTMGWYRQAPGKERELVAAITRSGGSTYYADSVKGRFTISRDNAKNTVYLQMISLKPEDTAVYYCNKVSYRHMDSWGQGTQVTVSS | high polyreactivity
11 | QVQLVESGGGLVQAGGSLRLSCAASGIILRRYAMGWYRQPPGKERELVAAISSRGGSTYYADSVKGRFTISRDNAKNTVYLQMNSLKPEDTAVYYCAAEDYWYDFDYWGQGTQVTVSS | high polyreactivity
12 | QVQLVESVGGLVQAGGSLRLSCAASGFIFNPYAMGWYRQAPGKERELVAAISWRGASTYYADSVKGRFTISRDNAKNTVYLQMNSLNPEDTAVYYCAADLAYSSTASDYEYWGQGTQVTVSS | low polyreactivity
13 | QVQLVESGGGLVQAGGSLRLSCSASGYIFSKYGMGWYRQAPGKEREFVAAISIRGGNTYYADSVKGRFTISRDNAKNTVYLQMTSLKPEDTAVYYCNALSYGRYLNYRGGMDYWGQGTQVTVSS | high polyreactivity
14 | QVQLVESGGGLVQAGGSLRLSCAASGRNFEVYTMGWYRQAPGTERELVDAIDRSTGSTYYADSVKGRFTISRDNAKNTVYLQMNSLKPEDTAVYDCAARGTFLGTRPLGRFDYWGQGTQVTVSS | low polyreactivity
15 | QVQLVESGGGLVQEGGSLRLSCAASGSIFGRNVMGWYRQAPGKERELVAAISEGGGRTYYADSVKGRFTISRDNAKNTVYLQMNSLKPEVTAVYYCAAAYFSSGYKYYYWGQGTQVTVSS | high polyreactivity
16 | QVQLVESGGGLVQAGCSLRLSCAASGSIFAYYDMGWYRQAPGKERELVAAITTRDDDTYYADSVKGRFTISRDNAKNTVYLLLNSLKPEDTAVYYCAAAWWDYGNGKYDYWGQGTQVTVSS | low polyreactivity
17 | QVQLVESGGGLVQAGGSLRLICAASGRIFDYYGMGWYRQAPGKETELVATIRRGGSTYYADSVKGRFTISRDNAMNTVYLQMNSLKPEDTAVYYCAAPGYSWYTYRRYDYWGQGTQVTVSS | high polyreactivity
18 | QVQLVESGGGLVHAGGSLRLSCAASGSTFGDNAMGWYRQAPGKERELVAAITSGTSTNYADSVKGRFTISRDNAKNTVYLQMNSLKPEDTAVYYCAAQYYGVAKQGLDEEDYWGQGTQVTVSS | low polyreactivity
19 | QVQLVESGGGLVQAGGSLSLSCAASGFTFFYNAMGWYRQAPGKERELVASITVSTSGTDYADSVKGRFTISLDNAKNTVYLQMNSLKPEDTAVYYCATDQVLVYSDLQDTAYYWGQGTQVTVSS | low polyreactivity
20 | PVQLVESGGGLVQAGGSLRLSCAASGSIFASYAMGWYREAPGKERELVAAISSSSGSTYYADSVKGRFTISRDNAKNTVYLQMTSLKPEDTAVYYCAAESGRRIKYWRGYYYWGQGTQVTVSS | low polyreactivity
21 | QVQLVESGGGLVQAGGSLRLSCAASGSTFWVNAMGWYRQAPGKVRELVAAIRRGGSTKYADSVKGRFTISRDNAKNTFYLQINSLKPEDTAVSYCAADAPGHEYYYWGQGTQVTVSS | high polyreactivity
22 | QVQLVESGGGLVQAGGRLRLSCAASGSTFGENVMGWYRQAPGKERELVAAISRGGSTYYADSVKGRFTISRDNAKNTVYLQMNSLKPEDTAVYYCAARTRSGPRYNYNYWGQGTQVTVSS | high polyreactivity

Row | Sequence | polyreactivity (PSR sort gate)
23 | QVQLVESGGGLVQAGGSLRLSCAASGRIIAYYAMGWSRQAPGKERELVAAINWNGGSTYYADSVKGRFTISRDNAKNTVYLQMNSLKPEDTAVYYCNAGRTYTALNGDYWGQGTQVTLSS | high polyreactivity
24 | QVQLVDSAGALVQAGGSLRLSCAASGRTFRYNAMGWYRQAPGKERELVAAITQSGGSTYYADSVKGRFTISRDNAKNTVYLQMNSQKPEDTAVYYCAKVRERINYDYWGQGTQVTVSS | low polyreactivity
25 | QVQLVESGGGLVQAGGSLRLSCAASGRTFFYYSMGWYRQAPGKERELVATITKRGGSTYYADSVKGRFTISRDNAKNTVYLQMNSLKPEDTAVYYCNATLGRTTAVFKYYWGQGTQVTVSS | high polyreactivity
26 | QVQLVESGGGLVQAGGSLRLSCAASGRTFGRYAMGWYRQAPWKERELVAVINGGGSTYYADSVKGRFTISRDNAKNTVYLQMNSLKPEDTAVDYCAVGGYTRTGGWFDYWGQGTQVTVSS | high polyreactivity
27 | QVQLVESGGVLVQAGGSLRLSCAASGIIFFGYAMGWYRQAPGKERELFAAISYSTGGTSTYADSVKGRFTISRDNAKNTVYLQKNSLKPEDTAVYYCAVRRQYRRAYSFSQSRYDYWGQGTQVTVSS | high polyreactivity
28 | QVQLVESGGGLVQAGGSLRLSCAASGRTFKYYAMGWYRQAPGKERELVAAISYNGGSTFYADSVKGRFTISRDNAKNTVYLQMNSLKPVDTAVYYCAAGPRGTGKYYWGQGTQVTVSS | high polyreactivity
29 | QVQLVESGGGLVQAGGSLRLSCAASGSTFFRYAMGWYRQAPGKERELVAAISWSGGTTYYADSVKGRFTISRDNAKNTVYLQMNSLKPEDTAVYYCAVDGGRWGQGTQVTVSS | low polyreactivity
30 | QVQLVESGGGLVQAGGSLRLSCDASGSTFYPYVMGWYRQAPGKERELVARITWSGGSTYYADSVKGRFTISRDNAKNTVYLQMNSLKPEDTAVYYCAALRYVNLLAQAYEYWGQGTQVTVSS | high polyreactivity
31 | QVQLVESGGGLVQAGGSLRLSCAASGSTSYGYAMGWYRQAPGKERELVAAISRTDRTYYADSVKGRFTISRDNAKNTVYLQMNSLKPEDTAVYYCTAVLVGRAEYYYWGQGTQVTVSS | high polyreactivity
32 | QVQLVESGGGLVQAGGSLRLSCAASGRTFFLNTMGWYRQAPGKERELGAAINWSDGGTYYADSVKGRFTISRDIAKNTVYLQMNSLKPEDTAVYYCAADVYWYYGAPELWYRFDYWGQGTQVTVSS | low polyreactivity
33 | QVQLVESGGGLVQAGGSLRLSCAASGRIFRYYAMGWYIQAPGKERELVAAISKSGGGTFYADSVKGRFTISRDNAKNTVYLQMNSLKPEDTEVYYCAARDKGLGKHDYWGQGTQVTVSS | low polyreactivity
34 | QVQLVESGGGLVQAGGSLRLSCAASGYIFSLNAMGWYRQAPGKERELVAGIRKRGGSTYYADSVKGRFTISRDNAKNTVYLQMNSLKPEDTAVYYCAAQPALTYRFYYWGQGTQVTVSS | high polyreactivity
35 | QVQLVESGGGLVQAGGSLRLSCAASGIIIDSNAMGWYRQAPGKERELVAAITSGGSTKYADSVKGRFTISRDNAKNTVYLQMNSLKPEDTAVYYCNADFRPADQWSYFYEMDSWGQGTQVTVSS | low polyreactivity
36 | QVQIVESGGGLVQGGGSLRLSCAASGSIFGGNAMGWYRQAPGKERELVATITVRGGSTYNADSVKGRFTISRDNAKNTVYLQMNSLKPEDTAVYYCAARGVYLLPKYDYWGQGTQVTVSS | low polyreactivity
37 | QVQLVESGGGIVQAGGRLRLSCAASGFTFGKYAMGWYRQAPGKERELVAAISRSGGSTYYADSVKGRFTISRDNAKFTVYLPMNSLKPVDTAVYYCAAYHPIQEYDYWGQGTQVTGSS | high polyreactivity
38 | QVQLVESGGGLVQAGGSLRISCAASGNTVNDYTMGWYRQEPGKERELVAAIRSGGRTYYADSVKGRFTISRDNAKNTVYLQMNSLKPEDTAVYYCAALAVTYRYDYWGQGTQVTVSS | high polyreactivity
39 | QVQLVESGGGLVQAGGSLRLSCAASGRTFVGNVMGWYRQAPGKERELVAAINRDASTNYADSVKGRFTISRDNAKNTVYLQMNSLKPEDTAVYYCATRRGFFDIFYGGYDYWGQGTQVTVSS | low polyreactivity
40 | QVQLVESGGGLVQAGGSLRLSCSASGFIFDVYAMGWYRPAPGKERELVAAISRSGGSTYYADSVKGRFTISRDNAKNTVYLQMNSLKPEDTAVYYCATVLLNNVDYDYWGQGTQVTVSS | low polyreactivity
41 | QVQLVESGGGLVQAGGSLRLSCAASGSTFSRYTMGWYRQAPGKEWELVAAISFRASSTYYADSVKGRFTISRDNAKNTVYLQMNSLKPEDTAVYYCAARNVFRYRWPIEYDYWGQGTQVTVSS | low polyreactivity
42 | QDQLVESGGGLVQAGGSLRLSCAASGSIFTRYTMGWYRQAPGKERELVATISSRGDGTYYADSVKGRFTISRDNAKNTVYLQMNSLKPEDTAVYYCAARYRRVHSGYGYWGQGTQVTVSS | high polyreactivity
43 | QVQLVESGGGLVQAGRSLRLSCAASGSTFSWNTMGWYRPAPGIERELVAAINSGGSTYYADSVKGRFTISRDNAKNTVYLQMNSLKPEDTAFYYCAARTKYYGRFDYWGQGTQVTVCS | low polyreactivity

— the nanobody polyreactivity screen of Harvey et al. (2022)
